Experimental data from PMC2428073, “Architecture of a Serine Recombinase-DNA Regulatory Complex” (Molecular Cell, 2008).
Several values for one entry are separate records, joined by “and”; a condition that tells them apart may be missing. Identical values can stand only once.

What was measured:
[1] = target: T1, Sin recombinase (pI9789 Sin) (Staphylococcus aureus (multiresistance …, UniProt P20384 1-202)); assay: X-ray crystallography (MAD/SIRAS, 3.21 A); Crystal structure; protein stored in 25 mM Tris pH 7.5, 0.5 mM EDTA, 400 mM (NH4)2SO4, 20% glycerol; DNA annealed in 100 mM NaCl; crystallization conditions not in the material; settings: protein: recombinant; tags: His6 (C-terminal); chain copies: 2; overhanging AT dinucleotides pairing with adjacent duplexes
T1 sequence: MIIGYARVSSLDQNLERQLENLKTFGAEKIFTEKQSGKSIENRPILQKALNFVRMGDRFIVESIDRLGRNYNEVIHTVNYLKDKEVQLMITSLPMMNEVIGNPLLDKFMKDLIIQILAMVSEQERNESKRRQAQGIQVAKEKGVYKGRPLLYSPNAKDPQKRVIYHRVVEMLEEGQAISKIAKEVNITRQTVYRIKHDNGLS

[2] = target: the molecule itself; assay: crystal structure; WT Sin cocrystallized with a 29 bp site II DNA duplex (2:1.25 molar ratio), hanging drop, 25 mM TRIS pH 7.5, (NH4)2SO4; two DNA-bound Sin dimers per asymmetric unit; 3.21 Å

B1: Sin res site II 29 bp duplex (dsDNA)
DNA 1: AACGTATGATTAGGGTGTATATTAATTTATA
DNA 2: TAAATTAATATACACCCTAATCATACGTTTA
modifications: 5-Br-dU and iodine-labelled versions used for phasing
B1: binds [1].

B2: Wild-type His6-tagged pI9789 Sin (enzyme, S. aureus, UniProt P20384 1-202, looked up)
chain: T1 sequence
notes: Sin resolvase (serine recombinase family) encoded by S. aureus plasmid pI9789; the crystal holds 836 Sin residues in four monomers (209 each, with the tag); The last nine residues, which contain the His6 tag, are not seen in the model; In the in vivo synapsis assay WT Sin was expressed from pSA9944 (also with a C-terminal His6 tag) in E. coli DS941; also called WT Sin; Sin resolvase; source: E. …
For B2, the “stoichiometry N” value [2] was 2 and 4.
